Laboratory results from the DeepSol protein solubility set.

Assay: soluble on expression in E. coli; label from the status in PepcDB or PDB records
For “MSGKISEEAMQEQAERAEYVKNIGIEYRFGCYEEKRPESCQLLGEYMEALQQNFQAAVAIFKKNCDENSYPKSCFKYGMYMLAGKVGDDASLSKMIRPMKIACDANIPQGCRYLSLVHWNGEKDRKADSEKAERYMRRACELEDGEACWLLSTWYMGNKEKFKTNAAGEAKELDRAELGSLSRDMDKSLQFAIRACEMDIPQSCANVSRMFKLGDGVPKDLDQAKKYADRAKEIMETLRSNDTNAGFTG”, the “soluble on expression in E. coli” value was “not soluble”. In the case of “MPPKTSEVARKLERLGFKPLPRRGKGGHRVYVHPDGRKVVLPLHSGEIPWGLFKTVLKQAGITEEEFRRA”, the “soluble on expression in E. coli” value was “soluble”. With “ATFTSLANQAASREDYEFHRTVLLASGGLLLSGDPLPEITPFASKTLAKLMLRQRRSQESAKFTALSLSHAFLKLTDKNDLHCLFNYANHNATEFTLTADQPVDWYDYWTGEKLNQDPCQLLLVSVDRGLNAKAIVTA” the “soluble on expression in E. coli” value was “not soluble”. In the case of “RSLVSVHNEWDPLEEVIVGTAVGARVPTADRSVFAVEYAGDYESQEQIPSGAYPDRVLKETEEELHVLAAELTKLGVTVRRPGPRDHSALIKTPDWETDGFHDYCPRDGLLSVGQTIIETPMALRSRFLESLAYKDLLLEYFASGSRWLSAPKPRLTDDSYAPQAPAGERLTDEEPVFDAANVLRFGTDLLYLVSDSGNELGAKWLQSAVGDTYTVHPCRKLYASTHVDSTIVPLRPGLVLTNPSRVNDENMPDFLRSWENITCPELVDIGFTGDKPHCSVWIGMNLLVVRPDLAVVDRRQTALIRLLEKHGMNVLPLQLTHSRTLGGGFHCATLDVRRTGALETYQF”, the “soluble on expression in E. coli” value was “soluble”. With “MIEGKTLVVNPFIGGSAKNITDEQYISILKKIKEKMPDLNIIITSYTTDEERTEKLCKDIGKDKIFAFSNGASILNTASIIDRADVYFGASTGPTHIAGALGKKIVAIYPHKKTQSPTRWGVLGNSNVRYIIPDENNPNEDYKNPYLEHHHHHH” the “soluble on expression in E. coli” value was “not soluble”. In the case of “MGSDKIHHHHHHVQQSQIMEDKIISAVRTFASSINSGGKVVADMSELIEVTSQLPLSSFDYWERFIRSEFSTALRESNSPKWKVWSKPKELVTWLDLISWDGYKREKALRALSGAAPNTFFFSLAVRRLNDWVPQVRKAAREKLPEIAKSTVPECVVDALCVALSNWNSWGRIEDADKEVLLKILCEKEIAKSLRSKLIFSASGPMPSLFSQLGRTPILDGQIEEIAKSAIQPSVRAKAYRSLFEGRVIWIEGRKWVWTDIRYCEGRLKPIVGERKLEIETPLIDLLKRSSEDRSSIVRRVSAEILIRELGNLGVKAKEFAERFALDSSQAVSERGDFALKKLDEAERANAS”, the “soluble on expression in E. coli” value was “not soluble”. In the case of “MTQERPSKLSFSIEETVWLNKGQEVKEILAMSLEPDIRIEEKQDHVYIKGGLRLLGEYVPTEEEATLDPTSAIQEQVSFRSVEEVTIDDEGKGSIQHFFPIDVTIPLSRIQKLDDIYVQVDSFDYDLPERSCIQLTADVSISGMTSEPPVSKQKAQSERPAAIDPLPKPPQLEPIPSTFSFEAKKPFVNEEAGAWNEGVQSRQTFKFQPADNENKLEEDVVVSNEEQAHEGEPIEESKADQAKVEESTASVQKQQEENHQQEVTSVANQDETAEGQVNEGNAIEPAMMRGEVDVEHYDSESVEEEENPTKIQLGVQREEVAIDEESQEDLGEDTDEPKGHREENALYLTKMMTNGEEEFSKLKMCIIQENESLDMIAERYDISTSHLIRFNRLTEERVEEGQILYIPVPSHQSKEGLEHHHHHH”, the “soluble on expression in E. coli” value was “soluble”. In the case of “RYSHSLGVYELLRRILNTPAFAPIDENKKQTVLVAGLLHDIGHAPHSHAFEIYFAKAPNFKKELFIHEEVTTLFVNSEPIKSILKANQIDPKLVAALIDENKELKPSNYWMRQLISSDLDADRMDYLLRD”, the “soluble on expression in E. coli” value was “not soluble”. With “MAHHHHHHMVVSTGEFDHPPFQFRQRHTFNTTPLHDANRFGGRTAYLREIGPVNIKKQGRRFKKDPRTVQFNVDVWCAQQTLRKRWKQRDWEVIEIPFRLVPREQQRVIPELYTDIPQMTDPARNDFSNIRNKVYDREELQGVLFPAAGTMLYPPLQRVDKQAMTLDKYL” the “soluble on expression in E. coli” value was “not soluble”. In the case of “MIVLRDVAGSDESMYQALQSDLDLTDYLSRFCPYNSSVANYDTSKVCWFIIEEDTNCIGSIWLERDAQEPDTVILGIFISGKNSRGRGIGSYAIREAIRISKQRMPFRYVRLNVRRNNLRAIRCYEKCGFKVCGEGQKNAKNGAIIDYYRMIMKVED”, the “soluble on expression in E. coli” value was “soluble”. With “MGSDKIHHHHHHNGPIVKGSKNYITKKENLEHFNDISMSGSANIIYQQDSSSRIEIYGSDNIVELLETKVNGKTLNIKFKKNVNIIDKGKLEIKVFSPDLNGLTLNGSGGILFANGIHTEGDLKVTINGSGNLGGSTFDTGHLAISIHGSGDVRLKQIDSKTCSASISGSGNITLDGMTGAAKYNISGSGNIKAADLEATDVYAGISGSGNISCFVNGKLGGHVSGSGNVAYKGNPQAIDFPHKKLRKLD” the “soluble on expression in E. coli” value was “not soluble”. For “MSLKKDTSEQSVEQSEVGLSLEELIRRGARDLIERAIEVEVQQLLAEYENVRMLGGSRAVVRNGYLPAREVLTAVGNVEVRVPKVRDRSGAGVKFNSALVPPYVRRSARVSAALPWLYLKGISTGDMREALTVLLGDEAKGLSPNVVSRLKTEWASDYAGWMKRDLSGSRYVYWWADGVHTSLRGEDDARQCLLVVIGVRLDGTKELVTVGDGHRESKASWLELLRDLKARGLEVGPRLAVGDGALGFWGALDELYPETRRQRCWVHKSANVLNALNALPKSLQAKAKAQLHEIWMAPTRAAAVSAFERFVECYQAKYPKAADKLVRDRDALLAFYDFPAEHWIHLRTTNPIESTFATVRHRTTRTKNCVSRSSFLGLAFKLVQEAEKSWRRIRGVERIAELMGGVVFKDGEPVKDEGHHHHHH”, the “soluble on expression in E. coli” value was “soluble”. With “MELVHGISTHFIQSKKFKTNKITVRFTAPLSLDTIAGHMLSASMLETANQMYPTSQDLRRHLASLYGTDMSTNCFRRGQSHIIELTFTYVRDEFLSRKNVLTSQILELVKETLFSPVVVDNGFDPALFEIEKKQLLASLAADMDDSFYFAHKELDKLFFHDERLQLEYSDLRNRILAETPQSSYSCFQEFLANDRIDFFFLGDFNEVEIQNVLESFGFKGRKGDVKVQYCQPYSNILQEGMVRKNVGQSILELGYHYCSKYGDEQHLPMIVMNGLLGGFAHSKLFTNVRENAGLAYTISSELDLFSGFLRMYAGINRENRNQARKMMNNQLLDLKKGYFTEFELNQTKEMIRWSLLLSQDNQSSLIERAYQNALFGKSSADFKSWIAKLEQIDKDAICRVANNVKLQAIYFMEGIE” the “soluble on expression in E. coli” value was “not soluble”. In the case of “DKIAIIGSRRMSVYTKNCVFSLASMLKNAHLCVVSGGALGVDITASMAAMPNTIGIFANGLDQIYPRTNEKIIKQIYENALALSEYEDDYLPKNYDFLLRNRLVIALSKAVVVAQADIKSGSMQSAKLALELNKPLYVLPQRLGESTATNLLLKENKAKLICDFKEFVSEFASID”, the “soluble on expression in E. coli” value was “not soluble”. In the case of “MSLAARRALHFVFKVGNRFQTARFYRDVLGMKVLRHEEFEEGCKAACNGPYDGKWSKTMVGFGPEDDHFVAELTYNYGVGDYKLGNDFMGITLASSQAVSNARKLEWPLTEVAEGVFETEAPGGYKFYLQNRSLPQSDPVLKVTLAVSDLQKSLNYWCNLLGMKIYEKDEEKQRALLGYADNQCKLELQGVKGGVDHAAAFGRIAFSCPQKELPDLEDLMKRENQKILTPLVSLDTPGKATVQVVILADPDGHEICFVGDEAFREGHHHHHH”, the “soluble on expression in E. coli” value was “soluble”. For “MDMYSMKISEGVERIDGVTANSYLLTLDGKNILIDTGTAGGGKKIIDYFNKNGTKPDYVIVTHHHADHVGGLKEISERFNPEIYVPDLEMKIIRGEEDPPKPRSFFGRMITGMLKFEPVKDVKPVSKASIPGIEEMATPGHTIGSTSYIVEDLHILFSGDAAVESGGELKINKSFSYEINSAERSLEIIKGMKGYLVLPGHGDKVQLLEHHHHHH”, the “soluble on expression in E. coli” value was “soluble”. With “MSDATYADAVIMEMNGRDIEIVSIKPQTTTGRKPVKTMNRNGRVNGYCDGVTEHKLSVTAAIPIDGTEIDWDNITKAKITIYPINDEDRRTSYLDCFTVDTGEQYEVDNEARIDIEMIALHKIKE” the “soluble on expression in E. coli” value was “not soluble”. In the case of “SFARGLKRKCVGHEEDVEGALAGLKTVSSYSLQRQSLLDMSLVKLQLCHMLVEPNLCRSVLIANTVRQIQEEMTQDGTWRTVAPQAAERAPLDRLVSTEILCRAAWGQEGAHPAPGLGDGHTQGPVSDLCPVTSAQAPRHLQSSAWEMDGPRENRGSFHKSLDQIFETLETKNPSCMEELFSDVDSPYYDLDTVLTGMMGGARPGPCEGLEGLAPATPGPSSSCKSDLGELDHVVEILVET”, the “soluble on expression in E. coli” value was “not soluble”.
